Residue numbers refer to the chain shown, from its start.

For experiment [1], the system named is cancer, cardiac and neuronal cell lines. The experiment is described as follows: Categorisation of active ADPs as pro-/anti-apoptotic (Example 15). The following applies: criteria of Example 15.
A short description of experiment [2]: Effectiveness of ADPs (Example 1, Table 6; cell death assays of FIGS. 10-13). Type of experiment: cell-based. The following applies: ADPs with N-terminal tumor penetrating peptide and C-terminal fluorescent tag; graded in words. The text has this: FIGS. 10A-C show the sequences mapped, peptide blots, imaging to show expression and cell death assays for these three peptides. A) PPA-1 (PEPTIDE23) (SEQ ID NO:23), B) PPA4 (PEPTIDE19) (SEQ ID NO:19), C) PPA10 (PEPTIDE16 including FF at C-terminus) (SEQ ID NO:16).
FIGS. 11A-B show the sequences mapped, peptide blots, imaging to show expression and cell death assays for these HSP-70 peptides. A) PHA4 (PEPTIDE5) (SEQ ID NO:5), B) PHA5 (PEPTIDE13 plus C-terminal L) (SEQ IDS NO: 13).
FIGS. 12A-C show the sequences mapped, peptide blots, imaging to show expression and cell death assays for these p65 (RELA) peptides. A) PRA1 (PEPTIDE14) (SEQ ID NO:14), B) PRA8 (PEPTIDE8) (SEQ ID NO:8), C) PRA9 (SEQ ID Nos:33 and 37-45).
FIGS. 13A-D show the sequences mapped, peptide blots, imaging to show expression and cell death assays for these HSP-70 peptides. A) PAA1-1 (PEPTIDE11) (SEQ ID NO:11), B) PPA1-3 (PEPTIDE15) (SEQ ID NO:15), C) PAR1 (PEPTIDE19), D) Paint 1 (PEPTIDE7) (SEQ ID NO:7).
ADPs were first identified using Peptide SPOT analysis. Peptides were identified from AKIP1. PKAc, HSP-70 and p65 sequences. The identified ADPs were attached at the N-terminus to tumor penetrating peptide based on the CENDR rule (FIG. 9). A fluorescent tag was attached to the C-terminus for ease of visualization. […]

B1: KSQVISNAKNTVQGFKRFHGRAFSDPFVEAEKSNLAYDIVQWPTGLTGIKVTYMEEERNFTTEQVTAMLLSKLKETAESVLKKPVV (peptide)
chain: KSQVISNAKNTVQGFKRFHGRAFSDPFVEAEKSNLAYDIVQWPTGLTGIKVTYMEEERNFTTEQVTAMLLSKLKETAESVLKKPVV
For the molecule B1, the “Pro-apoptotic (anti-angiogenic) category” value in experiment [1] is “Pro-apoptotic (anti-angiogenic)”.

B2: KSQVISNAKNTVQGFKRFHGRAFSDPFVEAEKSNLAYDIVQWPTGLTGIKVTYMEEERNFTIEQVTAMLLSKLKETAESVLKKPVV (peptide)
chain: B1 chain with T62I
Regarding B2, the Effectiveness entry in experiment [2] is reported as “Moderate”.

Values taken from patent publication US11608367B2, “Peptides for angiogenic therapy” (The Regents of the University of California, priority 2018, dated 2023).
